Measurements as given in article PMC10132759.
pKd: −log10 of the molar value.

The substances below were run against GAS7b-Avitag, biotinylated (mouse) (UniProt Q60780) (assay: BLI; BLItz; 0.1 μM biotinylated Avi-tagged GAS7b, Nck or WISH captured on streptavidin (SAX) biosensors; 0.25 μM WASP or its mutants as analyte; 10 mM tris-HCl pH 7.5, 150 mM NaCl, 1 mM EDTA; local fit to a 1:1 model, Kd = Koff/Kon; n = 3).

Chain of N-WASP without a tag (Q95107 whole entry): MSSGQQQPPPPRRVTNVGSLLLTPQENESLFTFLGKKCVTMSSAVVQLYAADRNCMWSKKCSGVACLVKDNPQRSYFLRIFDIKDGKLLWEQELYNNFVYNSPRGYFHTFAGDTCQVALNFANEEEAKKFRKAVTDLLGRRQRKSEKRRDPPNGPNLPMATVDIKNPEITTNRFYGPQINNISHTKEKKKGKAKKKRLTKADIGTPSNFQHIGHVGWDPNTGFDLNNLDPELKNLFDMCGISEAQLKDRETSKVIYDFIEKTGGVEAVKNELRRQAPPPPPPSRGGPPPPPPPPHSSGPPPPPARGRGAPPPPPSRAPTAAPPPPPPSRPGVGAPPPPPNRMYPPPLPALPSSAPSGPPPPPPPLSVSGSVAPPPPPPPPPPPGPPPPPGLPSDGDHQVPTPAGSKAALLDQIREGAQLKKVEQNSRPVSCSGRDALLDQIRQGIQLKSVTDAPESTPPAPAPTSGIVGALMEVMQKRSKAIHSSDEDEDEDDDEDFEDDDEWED

| Substance | pKd |
| --- | --- |
| WASP P373S (FLAG tag) (from UniProt P42768 1-502) (natural protein) | 7.82 |
| WASP S339Y (FLAG tag) (from UniProt P42768 1-502) (natural protein) | 8.15 |

The next substances have a higher pKd than those just listed; values first:

| pKd | Substance |
| --- | --- |
| 8.16 | WASP P359T (FLAG tag) (from UniProt P42768 1-502) (natural protein) |
| 8.37 | N-WASP without a tag (from UniProt Q95107 1-505) (natural protein) |
| 8.39 | WASP (FLAG tag) (from UniProt P42768 1-502) (natural protein) |
